Source: US20260183373A1 (Genentech, published 2026)
Positions count from the first letter of the chain named. Numbers in names are those of the source. Where two headings read alike, the source gives them in different places.

B1: IgG-CTF-2 format, neprolysin, crenezumab G33S(HC) (antibody)
heavy: not shown
light: DIVMTQSPLSLPVTPGEPASISCRSSQSLVYSNGDTYLHWYLQKPGQSPQLLIYKVSNRFSGVPDRFSGSGSGTDFTLKISRVEAEDVGVYYCSQSTHVPWTFGQGTKVEIKRTVAAPSVFIFPPSDEQLKSGTASVVCLLNNFYPREAKVQWKVDNALQSGNSQESVTEQDSKDSTYSLSSTLTLSKADYEKHKVYACEVTHQGLSSPVTKSFNRGEC
notes: Variant of m9
B2: IgG-CTF-2 format, neprolysin, solanezumab (antibody)
heavy: not shown
light: B1 light with I2V, P15L, E17Q, V30I, N33D, D35N, T36A, Y41F, Q50R
notes: Human IgG1 with NEP fused to the C-terminus of both heavy chains; also called solanezumab-NEP fusion
B3: IgG-CTF-2 format, neprolysin, crenezumab G33S(HC)/S56F(LC) (antibody)
heavy: not shown
light: B1 light with S61F
notes: Variant of m9
B4: IgG-CTF-2 format, neprolysin, crenezumab (antibody)
heavy: not shown
light: B1 light
notes: Human IgG1 with NEP fused to the C-terminus of both heavy chains; also called crenezumab-NEP fusion
B5: Fab-NTF(LC)-1 format, MMP3-D4K-4, RF61-D (Fab)
heavy: QLQLQESGPGLVKPSETLSLTCTVSGGSISRGSHYWGWIRQPPGKGLEWIGSIYYSGNTYFNPSLKSRVTISVDTSKNQFSLKLSSVTAADTAVYYCARLGPDDYTLDGMDVWGQGTTVTVSSASTKGPSVFPLAPSSKSTSGGTAALGCLVKDYFPEPVTVSWNSGALTSGVHTFPAVLQSSGLYSLSSVVTVPSSSLGTQTYICNVNHKPSNTKVDKKVEPKSCDKTHTDYKDDDDK
light: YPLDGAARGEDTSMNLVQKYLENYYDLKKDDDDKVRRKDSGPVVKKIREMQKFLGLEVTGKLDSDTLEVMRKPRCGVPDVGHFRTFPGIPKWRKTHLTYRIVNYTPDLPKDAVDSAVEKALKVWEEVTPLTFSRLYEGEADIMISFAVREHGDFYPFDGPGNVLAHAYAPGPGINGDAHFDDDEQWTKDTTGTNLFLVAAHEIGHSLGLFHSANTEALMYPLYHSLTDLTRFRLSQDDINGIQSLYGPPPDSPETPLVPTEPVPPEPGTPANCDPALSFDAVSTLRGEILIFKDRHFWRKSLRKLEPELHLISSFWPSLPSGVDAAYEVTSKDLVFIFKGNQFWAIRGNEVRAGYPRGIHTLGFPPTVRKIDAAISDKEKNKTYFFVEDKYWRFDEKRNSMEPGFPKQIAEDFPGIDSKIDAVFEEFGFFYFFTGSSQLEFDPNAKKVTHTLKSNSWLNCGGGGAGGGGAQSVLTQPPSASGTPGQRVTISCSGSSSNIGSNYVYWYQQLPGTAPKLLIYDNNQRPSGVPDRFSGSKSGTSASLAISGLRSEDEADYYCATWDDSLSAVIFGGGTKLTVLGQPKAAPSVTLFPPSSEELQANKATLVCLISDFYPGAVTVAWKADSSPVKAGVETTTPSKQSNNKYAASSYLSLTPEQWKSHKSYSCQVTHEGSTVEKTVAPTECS
notes: MMP3-D4K-4 fused to the N-terminus of the light chain; also called RF61-D Fab fusion
B6: anti-gD Control (antibody, human IgG1, kappa)
heavy chain with neprolysin fused to its C-terminus: not shown
light chain: DIQMTQSPSSLSASVGDRVTITCRASASVDSYGNSFIHWYQQKPGKAPKLLIYRASDLESGVPSRFSGSGSGTDFTLTISSLQPEDFATYYCQQNYADPFTFGQGTKVEIKRTVAAPSVFIFPPSDEQLKSGTASVVCLLNNFYPREAKVQWKVDNALQSGNSQESVTEQDSKDSTYSLSSTLTLSKADYEKHKVYACEVTHQGLSSPVTKSFNRGEC
B7: RF61 chimeric antibody variant R50D LC, S62P L95N T100aA D100cE M100eF HC (mouse IgG2a constant domains) (antibody, V domains shown)
VH: QLQLQESGPGLVKPSETLSLTCTVSGGSISRGSHYWGWIRQPPGKGLEWIGSIYYSGNTYFNPPLKSRVTISVDTSKNQFSLKLSSVTAADTAVYYCARNGPDDYALEGFDVWGQGTTVTVSS
VL: QSVLTQPPSASGTPGQRVTISCSGSSSNIGSNYVYWYQQLPGTAPKLLIYDNNQRPSGVPDRFSGSKSGTSASLAISGLRSEDEADYYCATWDDSLSAVIFGGGTKLTVL
notes: Round 3 variant, one of the eight; copies: 2 + 2
B8: RF61 chimeric antibody variant R50D Y34F LC, S62P D99H M100eF HC (mouse IgG2a constant domains) (antibody, V domains shown)
VH: B7 VH with N100L, D104H, A106T, E108D
VL: B7 VL with Y35F
notes: as for B7
B9: RF61 chimeric antibody variant R50N LC, S62P L95N D99H T100aA D100cE M100eF HC (mouse IgG2a constant domains) (antibody, V domains shown)
VH: B7 VH with D104H
VL: B7 VL with D51N
notes: as for B7
B10: RF61 chimeric antibody variant R50D Y34F LC, S62P L95N D100cE M100eF HC (mouse IgG2a constant domains) (antibody, V domains shown)
VH: B7 VH with A106T
VL: B7 VL with Y35F
notes: as for B7
B11: RF61 chimeric antibody variant R50N LC, L95N D99H T100aA HC (mouse IgG2a constant domains) (antibody, V domains shown)
VH: B7 VH with P64S, D104H, E108D, F110M
VL: B7 VL with D51N
notes: as for B7
B12: RF61 chimeric antibody variant R50N Y34F LC, S62P D99H D100cE M100eF HC (mouse IgG2a constant domains) (antibody, V domains shown)
VH: B7 VH with N100L, D104H, A106T
VL: B7 VL with Y35F, D51N
notes: as for B7

Assays:
[1] = target: T1, Aβ(1-40) (UniProt P05067 672-711); assay: cell-based or functional assay
[2] = target: T2, Aβ(1-28) (UniProt P05067 672-699); assay: SPR (Biacore T200): fusion captured on a protein A chip, Aβ(1-28) injected as analyte
T2 construct: domain: Aβ(1-28); also called amyloid-β 1-28
Method: Aβ surface plasmon resonance: Solution affinity constants for anti-Aβ antibodies were assessed on a Biacore™ T200. […] Affinity constants were obtained through kinetic fitting using the Biacore Evaluation Software.

[3] = target: T1, Aβ(1-40); assay: cell-based or functional assay; remark: listed apart in the source
[4] = target: T3, Aβ(1-42) (UniProt P05067 672-713); assay: cell-based or functional assay
[5] = target: T1, Aβ(1-40); assay: cell-based or functional assay; remark: listed apart in the source
[6] = target: T3, Aβ(1-42); assay: cell-based or functional assay; remark: listed apart in the source
[7] = target: T4, anti-HER2 antibody 4D5, IgG1 subtype; assay: SPR: 4D5 IgG1 captured on Protein L chip, RF61-MMP3 fusion constructs injected; monovalent affinity of the targeting arm
T4 construct: Captured on a Protein L chip as the IgG1 target of the RF61-MMP3 fusion constructs
Method: RF61 surface plasmon resonance: RF61 affinity for human IgG was assessed with a Biacore 8K+ or T200. For rounds one and two of affinity maturation, the Fc domain of human IgG1 was captured on a Series S Protein A chip according to the manufacturer's protocols. Serial dilutions of the RF61 Fab variants were prepared in HBS-P+ buffer. The dilutions were passed over the chip for 4 min, followed by a 5 min dissociation step. Variants were assessed using the response units at the point of late analyte binding normalized to Fc capture level. […] Serial dilutions of human IgG1 Fc in HBS-P+ were passed over the chip for 10 minutes, followed by a 6 min dissociation step. Affinity constants were obtained through kinetic fitting using the Biacore Evaluation Software (GE). […] A single 1000 nM concentration of each binding ablation variant was passed over the chip for 10 minutes, followed by a 6 min dissociation step. […] Serial dilutions of the RF61-MMP3 fusion constructs were prepared in HBS-P+ buffer. The dilutions were flowed over the chip for 3 min, followed by 8 min of dissociation. […] Affinity constants were determined as described above.

[8] = target: T5, human IgG1 Fc (human, UniProt P01857-1 104-330 = IgG part, limits assumed); assay: SPR: chimeric antibody captured by anti-mouse antibody on CM5 chip, human IgG1 Fc injected
T5 construct: domain: Fc; also called Fc domain of human IgG1

Row | Binder | EC50 of Aβ(1-40) cleavage (intact Aβ by ELISA) [1] [nM] | Kd [2] [nM] | koff [2] [s⁻¹] | kon [2] [M⁻¹ s⁻¹] | binding result [8] | also measured
1 | B1 | 1.6 | 1.8 | 0.0013 | 750000 |  | 
2 | B2 | 3.9 | 0.5 | 0.00014 | 300000 |  | 
3 | B3 | 2.3 | 0.8 | 0.0006 | 750000 |  | 
4 | B4 | 1.3 | 4.7 | 0.0041 | 880000 |  | EC50 of Aβ(1-40) cleavage (intact Aβ by ELISA) [3]: 1.1 nM; EC50 of Aβ(1-42) cleavage (intact Aβ by ELISA) [4]: 5 nM; EC50 of Aβ(1-40) cleavage, fold lower than the solanezumab-NEP fusion [5]: 3 fold; potency of Aβ cleavage, fold over the non-targeted control [5]: ~15 fold; potency of Aβ cleavage, fold over the non-targeted control [6]: ~9 fold
5 | B5 |  |  |  |  |  | Kd [7]: 104 nM
6 | B6 | 11 |  |  |  |  | 
7 | B7 |  |  |  |  | binds | 
8 | B8 |  |  |  |  | binds | 
9 | B9 |  |  |  |  | binds | 
10 | B10 |  |  |  |  | binds | 
11 | B11 |  |  |  |  | binds | 
12 | B12 |  |  |  |  | binds | 
